Patent US20180251562A1 (XOMA US, published 2018)
Like-named read-outs stand apart in the source and are kept apart here.

Key:
[1] = molecular target: T1, human insulin receptor (INSR) on CHOK1 cells (human, UniProt P06213 28-1382); experiment: cell-based or functional assay
[2] = molecular target: T1, human insulin receptor (INSR) on CHOK1 …; experiment: binding to CHO cells expressing human INSR; 1st column headed CHO Human INSR; quantity and unit not printed [cont'd]
[3] = molecular target: T2, rat insulin receptor (INSR) on CHOK1 cells (rat, UniProt P15127 27-1383); experiment: binding to CHO cells expressing rat INSR; 2nd column headed CHO Rat INSR (the 1st column's numbers with more digits); quantity and unit not printed [cont'd]
T2 construct: whole, on cells; CHOK1 cells over-expressing rat INSR; also called rat INSR ortholog

[4] = molecular target: T1, human insulin receptor (INSR) on CHOK1 …; experiment: binding to CHO cells expressing human INSR; 2nd column headed CHO Human INSR; quantity and unit not printed [cont'd]
[5] = molecular target: T2, rat insulin receptor (INSR) on CHOK1 …; experiment: binding to CHO cells expressing rat INSR; 1st column headed CHO Rat INSR; quantity and unit not printed [cont'd]
[6] = molecular target: T3, cynomolgus insulin receptor (INSR) on CHOK1 cells (cyno, UniProt A0A7N9D6H3 48-1390); experiment: binding to CHO cells expressing cyno INSR; 2nd column headed CHO Cyno INSR (same numbers as the 1st); quantity and unit not printed [cont'd]
T3 construct: whole, on cells; CHOK1 cells over-expressing cyno INSR; also called cynomologous INSR ortholog; monkey INSR

[7] = molecular target: T4, solubilized human INSR (B isoform) from CHO-hINSR-B cells, without insulin (human, UniProt P06213 28-1382); experiment: SPR (ProteOn XPR36), solubilized INSR-B captured by CT-3 mAb, Fab injected, -insulin
T4 construct: mature; Detergent-solubilized full-length receptor in cell lysate, captured on the SPR chip by its carboxy-terminal part; also called solubilized INSR

[8] = molecular target: T5, Recombinant human insulin receptor (B form) ECD (R&D Systems) (human, UniProt P06213 28-956, limits assumed); experiment: SPR (Biacore 2000), INSR-ECD immobilised, purified Fab injected, 1:1 fit
T5 construct: extracellular domain; also called INSR-ECD; h-INSR

[9] = molecular target: T1, human insulin receptor (INSR) on CHOK1 …; experiment: cell-based or functional assay; remark: listed apart in the source
[10] = molecular target: T1, human insulin receptor (INSR) on CHOK1 …; experiment: flow cytometry on CHO cells expressing human INSR
[11] = molecular target: T3, cynomolgus insulin receptor (INSR) on …; experiment: flow cytometry on CHOK1 cells expressing the INSR ortholog; Fab, anti-human kappa FITC detection
[12] = molecular target: T1, human insulin receptor (INSR) on CHOK1 …; experiment: as above
[13] = molecular target: T2, rat insulin receptor (INSR) on CHOK1 …; experiment: as above
[14] = molecular target: T6, minipig insulin receptor (INSR) on CHOK1 cells (minipig, UniProt F1SCL0 28-758; F1SCL0 763-1382); experiment: as above
T6 construct: Cells expressing minipig INSR; also called minipig INSR

[15] = molecular target: T3, cynomolgus insulin receptor (INSR) on …; experiment: cell-based or functional assay
[16] = molecular target: T1, human insulin receptor (INSR) on CHOK1 …; experiment: cell-based or functional assay; remark: listed apart in the source
[17] = molecular target: T2, rat insulin receptor (INSR) on CHOK1 …; experiment: cell-based or functional assay
[18] = molecular target: T6, minipig insulin receptor (INSR) on …; experiment: cell-based or functional assay
[19] = molecular target: T3, cynomolgus insulin receptor (INSR) on …; experiment: binding to CHO cells expressing cyno INSR; 1st column headed CHO Cyno INSR; quantity and unit not printed [cont'd]
[20] = molecular target: T4, solubilized human INSR (B isoform) from …; experiment: SPR (ProteOn XPR36), solubilized INSR captured by CT-3 mAb, antibody injected, no insulin
[21] = molecular target: T1, human insulin receptor (INSR) on CHOK1 …; experiment: flow cytometry on CHO cells expressing human INSR; remark: listed apart in the source
[22] = molecular target: T3, cynomolgus insulin receptor (INSR) on …; experiment: flow cytometry on CHOK1 cells expressing the INSR ortholog; IgG, anti-human IgG APC detection
[23] = molecular target: T1, human insulin receptor (INSR) on CHOK1 …; experiment: as above
[24] = molecular target: T2, rat insulin receptor (INSR) on CHOK1 …; experiment: as above
[25] = molecular target: T6, minipig insulin receptor (INSR) on …; experiment: as above
[26] = molecular target: T5, Recombinant human insulin receptor (B …); experiment: SPR (Biacore 2000), INSR-ECD immobilised; relative to 247.2.018 Fab
[27] = molecular target: T5, Recombinant human insulin receptor (B …); experiment: SPR (Biacore 2000), INSR-ECD immobilised, purified Fab injected, 1:1 fit [cont'd]

Binder | CHO Human INSR [2] | CHO Rat INSR [3] | CHO Human INSR [4] | CHO Rat INSR [5] | CHO Cyno INSR [6] | Kd [8] | Potency EC50 value [nM] [cont'd] [9] | EC50 (nM), pAKT signaling assay [15] | EC50 (nM), pAKT signaling assay [16] | EC50 (nM), pAKT signaling assay [17] | EC50 (nM), pAKT signaling assay [18] | CHO Cyno INSR [19] | other results
XPA.15.247.2.018 Fab (Fab, V domains shown, Monomeric Fab; also called XPA.247.2.018) VH: EVQLVETGGGVVQPGRSLRLSCAASGFTFSSYAMHWVRQAPGKGLEWVAVISYSGSNKYYADSVKGRFTISRDNSKNTLYLQMNSLRAEDTAVYYCARHEWGFGFDYWGQGTTVTVSS VL: DVVMTQSPLSLPVTLGQPASISCRSSQSLVYGDGNTYLNWFQQRPGQSPRRLIYKVSNRDSGVPDRFSGSGSGTEFTLKISRVEAEDVGVYFCMQGTYWPGTFGGGTKLEIKR | 2.2 | 1.28 | 1.63 | 1.28 | 2.62 | 9.7 nM | 1.31 nM | 2.8 nM | 3.3 nM | 4.2 nM | 2.5 nM | 2.62 | EC50, pAKT assay at the EC80 concentration of insulin [1]: 7.7 nM; Kd [7]: 6.9 nM; EC50 (read off the curve) [10]: ~0.2 µg/mL; EC50 [11]: 21.9 nM; EC50 [12]: 1.6 nM; EC50 [13]: 1.9 nM; EC50 [14]: 2 nM
XPA.15.247.2.018 IgG (antibody, V domains shown, Tested as IgG; also called XPA.15.247.2.018 antibody) VH: EVQLVETGGGVVQPGRSLRLSCAASGFTFSSYAMHWVRQAPGKGLEWVAVISYSGSNKYYADSVKGRFTISRDNSKNTLYLQMNSLRAEDTAVYYCARHEWGFGFDYWGQGTTVTVSS VL: DVVMTQSPLSLPVTLGQPASISCRSSQSLVYGDGNTYLNWFQQRPGQSPRRLIYKVSNRDSGVPDRFSGSGSGTEFTLKISRVEAEDVGVYFCMQGTYWPGTFGGGTKLEIKR | – | – | – | – | – | – | – | 0.2 nM | 0.3 nM | 0.4 nM | 0.3 nM | – | Kd [20]: 6.6 nM; EC50 (read off the curve) [21]: ~0.8 µg/mL; EC50 [22]: 1.4 nM; EC50 [23]: 0.3 nM; EC50 [24]: 0.4 nM; EC50 [25]: 0.5 nM
RHF.15.05896.075 (Fab, V domains shown, Untagged Fab) VH: EVQLVETGGGVVQPGRSLRLSCAASGFKFSSYAMHWVRQAPGKGLEWVAVISYSGSNKYYADSVKGRFTISRDNSKNTLYLQMNSLRAEDTAVYYCARHEWGFGYDYWGQGTTVTVSS VL: DVVMTQSPLSLPVTLGQPASISCRSSQSLVYGDGNTYLNWFQQRPGQSPRRLIYKVSNRDSGVPDRFSGSGSGTEFTLKISRVEAEDVGVYFCMQGTYWPGTFGGGTKLEIKR | 1.06 | 0.621 | 0.791 | 0.621 | 0.728 | 1.4 nM | 1.16 nM | – | – | – | – | 0.728 | Fold KD Improvement [26]: 7 fold; koff [27]: 0.00045 s⁻¹; kon [27]: 320000 M⁻¹ s⁻¹
